Results: patent publication US20150306181A1 (BOARD OF REGENTS OF THE UNIVERSITY OF NEBRASKA, published 2015)

Key:
[1] = target: T1, mouse leptin receptor-Fc chimera (mouse; human, UniProt P48356 22-839); experiment: SPR, ObR-Fc captured on protein G chip, 1:1 model; leptin in 1:1 mixture with free Pluronic P85; leptin mixed with free P85
T1 construct: extracellular domain; Bought from R&D Systems; Captured on a protein G sensor chip through its Fc; also called ObR-Fc; chimera leptin receptor; not shown: human Fc fragment, printed as 'human protein G Fc fragment'
T1 sequence (looked up): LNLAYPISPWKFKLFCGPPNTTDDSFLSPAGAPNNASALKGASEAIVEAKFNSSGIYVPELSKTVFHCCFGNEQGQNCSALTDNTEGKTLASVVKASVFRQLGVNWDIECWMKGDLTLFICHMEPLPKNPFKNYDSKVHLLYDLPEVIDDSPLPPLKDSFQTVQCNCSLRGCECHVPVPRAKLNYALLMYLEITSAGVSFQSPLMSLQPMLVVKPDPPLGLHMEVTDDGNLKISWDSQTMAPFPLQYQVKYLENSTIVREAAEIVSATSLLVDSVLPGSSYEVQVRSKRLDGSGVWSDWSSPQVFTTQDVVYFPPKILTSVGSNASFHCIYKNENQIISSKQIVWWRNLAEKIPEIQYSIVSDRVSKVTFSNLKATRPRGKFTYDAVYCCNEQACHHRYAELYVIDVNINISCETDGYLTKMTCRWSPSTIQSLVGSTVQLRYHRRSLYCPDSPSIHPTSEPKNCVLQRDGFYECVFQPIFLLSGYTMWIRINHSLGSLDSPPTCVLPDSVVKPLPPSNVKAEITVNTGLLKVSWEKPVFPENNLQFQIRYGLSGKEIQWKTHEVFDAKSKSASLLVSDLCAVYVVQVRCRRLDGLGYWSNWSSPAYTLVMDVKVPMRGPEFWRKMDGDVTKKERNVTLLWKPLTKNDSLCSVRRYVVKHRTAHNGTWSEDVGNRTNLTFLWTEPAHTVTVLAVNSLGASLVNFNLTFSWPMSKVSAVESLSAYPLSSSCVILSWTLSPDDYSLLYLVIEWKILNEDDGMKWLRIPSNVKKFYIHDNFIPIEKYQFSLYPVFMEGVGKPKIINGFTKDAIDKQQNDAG
Protocol: (§1) The binding affinity of leptin and its analogs was measured by surface plasma resonance (SPR) in Biacore® 3000 instrument (GE Healthcare, Piscataway, N.J.), using a method reported for leptin (Mistrik et al. (2004) Anal. Biochem., 327:271-7). Carboxymethyl dextran chip (CMS), N-hydroxysuccinimide (NHS), 1-ethyl-3-(3-dimethylaminopropyl) carbodiimide (EDC), ethanolamine-HCl, HBS-EP buffer (10 mM HEPES, 150 mM NaCl, 3 mM EDTA, 0.005% surfactant P20, pH 7.4) and protein G were all purchased from GE Healthcare. […] CMS surface response was recorded by first, immobilization of ObR-Fc (0.5 μg/mL, 15 μL in HBS-EP, 5 μL/min flow rate) in channel A following 1800 s washing (to capture 100-300 RU of ObR-Fc); second, capture of leptin or leptin-Pluronic® conjugates (0-300 nM, 100 μL in HBS-EP, flow rate 20 μL/min) and dissociation (900 s) in channel A (ObR-Fc surface) and B (protein G surface); third, regeneration of a fully active protein G surface by 5 μL glycine (10 mM, pH 2.0). […]
(§2) TABLE 3 Kinetic constants for leptin and leptin-P85 conjugates and leptin receptor interaction. The association and dissociation rate constants kₐ and kd were determined as global fitting parameters for a 1:1 binding model. […] The equilibrium dissociation constant KD was determined as kd/kₐ. […]

[2] = target: T1, mouse leptin receptor-Fc chimera; experiment: SPR, ObR-Fc captured on protein G CM5 chip, 1:1 model (Example 3)
Protocol: […] Binding affinity of leptin or leptin-POx with leptin receptor was determined by surface plasma resonance (SPR). Protein G was immobilized on CM5 sensor chip using following procedure: 1) inject 115 μL NHS/EDC mixed solution (1:1, v/v) to activate dextran surface; 2) inject 60 μL protein G (200 μg/mL in 10 mM sodium acetate buffer, pH 4.0) to bind with the activated sensor surface; 3) inject 75 μL of 1 M ethanolamine hydrochloride, pH 8.5 to deactivate NHS-ester and remove non-specifically bound protein. […] The sensorgram in channel A was corrected by non-specific surface binding (sensorgram in channel B) and baseline draft (sensorgram of HBS-EP buffer injection in channel A) and then fitted with a 1:1 binding model as provided by BIA evaluation software. The rate constant kₐ and kd, and equilibrium association constant (KA) and dissociation constant (KD) are determined.

[3] = target: T1, mouse leptin receptor-Fc chimera; experiment: SPR (Biacore 3000), ObR-Fc captured on protein G chip, 1:1 model, KD = kd/ka
Protocol: as §1, §2

[4] = target: T1, mouse leptin receptor-Fc chimera; experiment: SPR, ObR-Fc captured on protein G chip, 1:1 model; leptin in 1:1 mixture with free Pluronic P85
Protocol: as §1, §2

[5] = target: T1, mouse leptin receptor-Fc chimera; experiment: SPR (Biacore 3000), ObR-Fc captured on protein G chip, 1:1 model
Protocol: The binding affinity of leptin and its analogs was measured by surface plasma resonance (SPR) in Biacore® 3000 instrument (GE Healthcare, Piscataway, N.J.), using a method reported for leptin (Mistrik et al. (2004) Anal. Biochem., 327:271-7). Carboxymethyl dextran chip (CMS), N-hydroxysuccinimide (NHS), 1-ethyl-3-(3-dimethylaminopropyl) carbodiimide (EDC), ethanolamine-HCl, HBS-EP buffer (10 mM HEPES, 150 mM NaCl, 3 mM EDTA, 0.005% surfactant P20, pH 7.4) and protein G were all purchased from GE Healthcare. To prepare the sensor chip, protein G was immobilized on CMS (Channel A and B) by consequent injection of 1) 115 μL NHS/EDC (1:1, v/v) (to activate dextran surface); 2) 60 μL protein G (200 μg/mL, 10 mM sodium acetate buffer, pH 4.0) (to bound the surface at 2000-3000 resonance units (RU)), and 3) 75 μl of 1 M ethanolamine hydrochloride, pH 8.5 (to deactivate NHS-ester and remove electrostatically bound protein). CMS surface response was recorded by first, immobilization of ObR-Fc (0.5 μg/mL, 15 μL in HBS-EP, 5 μL/min flow rate) in channel A following 1800 s washing (to capture 100-300 RU of ObR-Fc); second, capture of leptin or leptin-Pluronic® conjugates (0-300 nM, 100 μL in HBS-EP, flow rate 20 μL/min) and dissociation (900 s) in channel A (ObR-Fc surface) and B (protein G surface); third, regeneration of a fully active protein G surface by 5 μL glycine (10 mM, pH 2.0). The data (sensorgrams in channel A) were corrected by non-specific protein G surface binding (sensorgrams in channel B) and baseline draft (sensorgrams of HBS-EP injection in channel A) which might occur due to a slow dissociation of between ObR-Fc and protein G and then fitted to a 1:1 binding model using BIA evaluation software.
TABLE 3 Kinetic constants for leptin and leptin-P85 conjugates and leptin receptor interaction. The association and dissociation rate constants kₐ and kd were determined as global fitting parameters for a 1:1 binding model. The kinetics of the interaction with leptin, the mixture of leptin and P85, Lep-(ss)-P85(1) and its reduced form, Lep-(ss)-P85(2.1) and its reduced form, Lep-(nc)-P85(2) and purified Lep-(ss)-P85(2.3) from HIC, 33 min were analyzed. The equilibrium dissociation constant KD was determined as kd/kₐ. Numbers represent averaged values from three independent measurements on the same ObR-Fc surface.

[6] = target: T1, mouse leptin receptor-Fc chimera; experiment: SPR, ObR-Fc captured on protein G chip; leptin in 1:1 mixture with free Pluronic P85
Excerpt: Next, the binding of the leptin-Pluronic® conjugates with the chimera leptin receptor (ObR-Fc) was studied. ObR-Fc contains the human […] Fc fragment and the mouse ObR N-terminus that shares the same sequence as the extracellular domains of the putative leptin transporter at the BBB (ObRa) and the leptin receptor (ObRb) expressed in the brain. The Fc fragment of ObR-Fc was used to reversibly bind to protein G that was pre-immobilized onto the sensor chip. The ObR N-terminus of ObR-Fc adsorbed onto the sensor chip was used for sample detection. The SPR association and dissociation profiles were recorded for native leptin, a mixture of leptin and P85, Lep-(ss)-P85(1), Lep-(ss)-P85(2.1), Lep-(ss)-P85(2.3) (fractions purified by HIC and collected at 33 min) and Lep-(nc)-P85(2) (FIG. 8 and Table 3). […] The KD values for the N-terminal modified Lep-(nc)-P85(2), which also had low modification degree, were similar to those observed for Lep-(ss)-P85(2.1) without HIC purification.

B1: Mouse leptin (ligand, UniProt P41160 22-167, looked up)
chain: VPIQKVQDDTKTLIKTIVTRINDISHTQSVSAKQRVTGLDFIPGLHPILSLSKMDQTLAVYQQVLTSLPSQNVLQIANDLENLRDLLHLLAFSKSCSLPQTSGLQKPESLDGVLEASLYSTEVVALSRLQGSLQDILQQLDVSPEC
notes: Also tested as a non-covalent 1:1 mixture with free Pluronic P85 ('Leptin + P85'); Those rows use this molecule and name the mixture under assay; The preparation held monomer and dimer on SDS-PAGE; also called native leptin; mu-leptin
Kd [1]: 0.337 nM | Ka [2]: 1.1e+09 M⁻¹ | Kd [2]: 0.96 nM | koff [2]: 0.00051 s⁻¹ | kon [2]: 530000 M⁻¹ s⁻¹ | Kd [3]: 0.1 nM | koff [4]: 0.000368 s⁻¹ | kon [4]: 1.09e+06 M⁻¹ s⁻¹ | koff [5]: 0.000208 s⁻¹ | kon [5]: 2.09e+06 M⁻¹ s⁻¹ | fold decrease of binding affinity against native leptin alone [6]: ~3 fold

B2: Lep-(ss)-P85(2.1) (ligand, mouse, UniProt P41160 22-167, looked up)
chain: B1 chain
modifications: Pluronic P85 chains on lysine amino groups through the DSP (disulfide) linker; lower degree of modification; positions not determined
notes: Mixture that includes unmodified leptin
Kd [5]: 3.2 nM | koff [5]: 0.000355 s⁻¹ | kon [5]: 113000 M⁻¹ s⁻¹

B3: Lep-(ss)-P85(2.3), 33 min (ligand, mouse, UniProt P41160 22-167, looked up)
chain: B1 chain
modifications: one Pluronic P85 chain on a lysine amino group through the DSP (disulfide) linker; position not determined
notes: HIC fraction collected at 33 min, said to contain leptin modified with one P85 chain; also called Lep-(ss)-P85(2.3) purified by HIC (33 minutes); HIC-purified Lep-(ss)-P85(2.3)
Kd [5]: 1.21 nM | koff [5]: 0.000292 s⁻¹ | kon [5]: 311000 M⁻¹ s⁻¹

B4: Leptin-POx conjugate (ligand, UniProt P41160 22-167, looked up)
chain: B1 chain
modifications: P(MeOx50-b-BuOx20) poly(2-oxazoline) chains on amino groups through the DSP linker; modification degree 6.0 per leptin monomer by TNBS assay
notes: SEC-purified mixture of forms with different numbers of POx chains, with some unmodified monomer and dimer; also called leptin-P(MeOx-b-BuOx); leptipox
Ka [2]: 1.8e+07 M⁻¹ | Kd [2]: 56 nM | koff [2]: 0.00073 s⁻¹ | kon [2]: 13000 M⁻¹ s⁻¹

B5: Lep-(ss)-P85(1) reduced (ligand, mouse, UniProt P41160 22-167, looked up)
chain: B1 chain
modifications: Pluronic P85 chains on lysine amino groups through the DSP linker, partly cleaved by 6 mM L-glutathione; a linker remainder is left on cleaved sites
notes: Lep-(ss)-P85(1) dialysed against 6 mM L-glutathione in PBS with 20% ethanol; Some but not all P85 chains were cleaved; also called reduced form of Lep-(ss)-P85(1)
Kd [5]: 16.4 nM | koff [5]: 0.00079 s⁻¹ | kon [5]: 49000 M⁻¹ s⁻¹

B6: Lep-(ss)-P85(1) (ligand, mouse, UniProt P41160 22-167, looked up)
chain: B1 chain
modifications: Pluronic P85 chains on lysine amino groups through the DSP (disulfide) linker; highly modified; positions not determined
notes: Mixture of unmodified leptin and leptin with 1 to several P85 chains
Kd [5]: 57.1 nM | koff [5]: 0.000642 s⁻¹ | kon [5]: 12000 M⁻¹ s⁻¹

B7: Lep-(nc)-P85(2) (ligand, mouse, UniProt P41160 22-167, looked up)
chain: B1 chain
modifications: one Pluronic P85 chain on the N-terminal alpha amino group by reductive amination with mono-aldehyde-P85
notes: the rest is unmodified leptin; also called N-terminal modified Lep-(nc)-P85(2)
Kd [5]: 3.8 nM | koff [5]: 0.000247 s⁻¹ | kon [5]: 77000 M⁻¹ s⁻¹

B8: Lep-(ss)-P85(2.1) reduced (ligand, mouse, UniProt P41160 22-167, looked up)
chain: B1 chain
modifications: Pluronic P85 chains on lysine amino groups through the DSP linker, partly cleaved by 6 mM L-glutathione
notes: Lep-(ss)-P85(2.1) dialysed against 6 mM L-glutathione in PBS with 20% ethanol; also called reduced form of Lep-(ss)-P85(2.1)
Kd [5]: 2.09 nM | koff [5]: 0.000407 s⁻¹ | kon [5]: 195000 M⁻¹ s⁻¹
